Results reported in patent publication US20250230247A1 (DREN BIO, published 2025).

Experiments:
[1] = target: T1, cynomolgus monkey Dectin-1 expressed on monocytes (cynomolgus monkey, UniProt A0A2K5UXY6 35-281); assay: flow cytometry, cynomolgus monocytes
T1 construct: whole, on cells; also called cynomolgus Dectin-1; cyno Dectin-1
T1 sequence: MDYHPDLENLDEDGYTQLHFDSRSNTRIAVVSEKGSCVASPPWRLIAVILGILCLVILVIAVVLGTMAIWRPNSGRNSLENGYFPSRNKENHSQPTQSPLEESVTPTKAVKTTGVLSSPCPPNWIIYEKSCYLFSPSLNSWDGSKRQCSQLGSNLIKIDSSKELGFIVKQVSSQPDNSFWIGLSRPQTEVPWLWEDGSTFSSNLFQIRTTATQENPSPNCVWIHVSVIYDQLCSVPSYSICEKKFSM
Experimental: (§1) Binding of Dectin-1 antibodies to Dectin-1 expressing cells Dectin-1 expressing cells (HEK Blue hDectin-1-a, HEK Blue hDectin-1-b, HEK293F hDectin-1 a FL, human monocytes or cyno monocytes) were plated at 1×10⁵-2×10⁵ cells per well in non-tissue culture treated, 96 well V bottom plates. Additionally, human monocytes were incubated in human FcgR blocking antibody (Biolegend, San Diego, CA) for 10 minutes at room temperature to reduce binding of the antibodies to the Fc receptor.
(§2) For detection of mouse primary antibodies, the cells were incubated with a fluorescently labeled AF647 anti-mouse Fc-specific secondary antibody (Jackson Immuno). […] Data acquisition was performed using a CytoFlex flow cytometer (Beckman Coulter, Atlanta, GA) and analyzed using Graphpad Prism 8.4.
The binding was assessed by flow cytometry analysis of cynomolgus monkey monocytes derived from PBMCs.

[2] = target: T2, human Dectin-1 isoform A (human, UniProt Q9BXN2 1-247); assay: flow cytometry on HEK-Blue hDectin-1a cells
T2 construct: also called hDectin-1a; Dectin-1 on HEK-Blue hDectin-1a cells
T2 sequence: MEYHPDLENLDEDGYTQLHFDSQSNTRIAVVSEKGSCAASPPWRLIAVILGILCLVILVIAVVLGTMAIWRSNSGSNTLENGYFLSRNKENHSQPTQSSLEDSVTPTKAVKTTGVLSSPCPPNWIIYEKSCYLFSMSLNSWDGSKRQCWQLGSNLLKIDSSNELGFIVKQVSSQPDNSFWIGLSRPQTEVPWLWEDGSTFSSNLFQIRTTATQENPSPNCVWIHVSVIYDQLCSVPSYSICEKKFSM
Experimental: as §1, §2

[3] = target: T3, human Dectin-1 isoform B (human, UniProt Q9BXN2 1-247); assay: flow cytometry on HEK-Blue hDectin-1b cells
T3 construct: also called hDectin-1b; Dectin-1 on HEK Blue hDectin-1-b cells
T3 sequence: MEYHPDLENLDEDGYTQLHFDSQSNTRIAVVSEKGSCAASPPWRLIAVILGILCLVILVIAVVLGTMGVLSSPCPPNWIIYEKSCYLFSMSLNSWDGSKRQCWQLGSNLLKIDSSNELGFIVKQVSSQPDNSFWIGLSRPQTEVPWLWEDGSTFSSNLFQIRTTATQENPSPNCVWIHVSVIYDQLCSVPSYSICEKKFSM
Experimental: as §1, §2

[4] = target: T2, human Dectin-1 isoform A; assay: flow cytometry on HEK293F hDectin-1a FL cells
Experimental: as §1, §2

[5] = target: T2, human Dectin-1 isoform A; assay: flow cytometry on HEK-Blue hDectin-1a cells (summary table)
Experimental: as §1, §2

[6] = target: T3, human Dectin-1 isoform B; assay: flow cytometry on HEK-Blue hDectin-1b cells (summary table)
Experimental: as §1, §2

[7] = target: T2, human Dectin-1 isoform A; assay: flow cytometry on HEK293F hDectin-1a FL cells (summary table)
Experimental: as §1, §2

B1: anti-human Dectin-1 antibody clone 2M24 (mIgG1) (antibody, V domains shown)
VH: QVQLVQSGAEVKKPGASVKVSCKSSGYTFTDYYIHWVRQAPGQGLEWMGWINPNSGDTNYAQKFQGRITMTRDTSISTAYLELSRLRSDDTAVFYCARNSGSYSFGYWGQGTLVTVSS
VL: DIQMTQSPSSVSASVGDRVTITCRASQGISSWLAWYQQKPGKAPKLLIFGASSLQSGVPSRFSGSGSGTDFTLTVSSLQPEDFATYYCQQAYSFPFTFGPGTKVDIE
notes: hybridoma antibody with human variable and mouse constant domains (mIgG1); also called 2M24 clone; mIgG1 2M24
Q: Which results are given for B1?
A: EC50 [1]: 0.3 nM; EC50 [2]: 0.4 nM; EC50 [3]: 1 nM; EC50 [4]: 1.1 nM; EC50 [5]: 0.4 nM; EC50 [6]: 1 nM; EC50 [7]: 1.1 nM
